Reference: patent US20110300138A1 (published 2011)
Blank lines part the entries; values can stand above or below the molecule they belong to.

Columns and labels:
[1] = biological target: full length human TSHR with mutation Arg255 Asp (human) (UniProt P16473); assay: TSHR260-AP bridge ELISA, Arg255 Asp TSHR on wells; IgG at 0.5 µg/mL in HBD
[2] = biological target: thyroid stimulating hormone receptor (TSHR), full length, coated on tubes (human) (UniProt P16473); assay: inhibition of 125I-TSH binding, TSHR coated tubes; antibody 10 µg/mL in HBD serum pool
[3] = biological target: TSH receptor (TSHR), full length human, coated on tubes (human) (UniProt P16473); assay: inhibition of 125I-TSH binding to TSHR coated tubes; 0.1 µg/mL, diluted in assay buffer
[4] = biological target: human thyroid stimulating hormone receptor (TSHR), full length (human) (UniProt P16473); assay: 125I-K1-70 Fab (competitor) binding to TSHR coated tubes; test sample 0.01 µg/mL in assay buffer
[5] = biological target: TSHR with Asp203 mutated to Ala expressed in CHO cells (human) (UniProt P16473); assay: cell-based or functional assay
[6] = biological target: TSHR with Asp276 mutated to Ala, expressed in CHO cells (human) (UniProt P16473); assay: cell-based or functional assay
[7] = biological target: TSHR with Asp43 mutated to Ala, expressed in CHO cells (human) (UniProt P16473); assay: cell-based or functional assay
[8] = biological target: TSHR with Lys183 mutated to Ala expressed in CHO cells (human) (UniProt P16473); assay: cell-based or functional assay
[9] = biological target: TSHR with Lys58 mutated to Ala expressed in CHO cells (human) (UniProt P16473); assay: cell-based or functional assay
[10] = biological target: TSHR with Thr104 mutated to Ala (expressed in CHO cells) (human) (UniProt P16473); assay: cell-based or functional assay
[11] = biological target: human TSHR (thyroid stimulating hormone receptor), full length, expressed in transfected CHO cells (human) (UniProt P16473); assay: cell-based or functional assay
[12] = biological target: wild type TSHR (human TSH receptor) expressed in CHO cells (human) (UniProt P16473); assay: cell-based or functional assay
[13] = biological target: TSHR260-alkaline phosphatase (TSHR260-AP) (human) (UniProt P05187); assay: TSHR260-AP bridge ELISA, full length TSHR on wells; 250 µg/mL, diluted in HBD
[14] = biological target: TSHR260-alkaline phosphatase (TSHR260-AP) (human) (UniProt P05187); assay: TSHR260-AP bridge ELISA, full length TSHR on wells; 0.005 µg/mL, diluted in assay buffer

Mean absorbance at 405 nm (absorbance at 405 nm) [1]: 0.242
Inhibition of binding (%) [2]: 60.5%
Inhibition of binding (%) [3]: 48.3%
Inhibition of binding (%) [4]: 5%
Molecule: 9D33 IgG (antibody)

% inhibition of TSH stimulation: 5B3 10 µg/mL [5]: 0%
% inhibition of TSH stimulation: 5B3 100 µg/mL [5]: 0%
Cyclic AMP, Mutated/wild type (%): 5B3 10 µg/mL + TSH 3 ng/mL [5]: 89%
Cyclic AMP, Mutated/wild type (%): 5B3 100 µg/mL + TSH 3 ng/mL [5]: 84%
Experiment 1; % inhibition of TSH stimulation; 5B3 10 µg/mL [6]: 6%
Experiment 1; % inhibition of TSH stimulation; 5B3 100 µg/mL [6]: 4%
Experiment 1; Mutated/wild type (%) of cyclic AMP produced; 5B3 10 µg/mL + TSH 3 ng/mL [6]: 84%
Experiment 1; Mutated/wild type (%) of cyclic AMP produced; 5B3 100 µg/mL + TSH 3 ng/mL [6]: 94%
Experiment 1; cyclic AMP produced; 5B3 10 µg/mL + TSH 3 ng/mL [6]: 66.8 pmol/mL
Experiment 1; cyclic AMP produced; 5B3 100 µg/mL + TSH 3 ng/mL [6]: 68.5 pmol/mL
Experiment 2; % inhibition of TSH stimulation; 5B3 10 µg/mL [6]: 4%
Experiment 2; % inhibition of TSH stimulation; 5B3 100 µg/mL [6]: 0%
Experiment 2; Mutated/wild type (%) of cyclic AMP produced; 5B3 10 µg/mL + TSH 3 ng/mL [6]: 67%
Experiment 2; Mutated/wild type (%) of cyclic AMP produced; 5B3 100 µg/mL + TSH 3 ng/mL [6]: 75%
Experiment 2; cyclic AMP produced; 5B3 10 µg/mL + TSH 3 ng/mL [6]: 71.6 pmol/mL
Experiment 2; cyclic AMP produced; 5B3 100 µg/mL + TSH 3 ng/mL [6]: 75.9 pmol/mL
% inhibition of TSH stimulation, 5B3 10 µg/mL, mutated TSHR [7]: 0%
% inhibition of TSH stimulation, 5B3 100 µg/mL, mutated TSHR [7]: 4%
Cyclic AMP produced (pmol/mL), 5B3 10 µg/mL + TSH 3 ng/mL, mutated TSHR [7]: 73.7 pmol/mL
Cyclic AMP produced (pmol/mL), 5B3 100 µg/mL + TSH 3 ng/mL, mutated TSHR [7]: 58 pmol/mL
Mutated/wild type (%), 5B3 10 µg/mL + TSH 3 ng/mL [7]: 69%
Mutated/wild type (%), 5B3 100 µg/mL + TSH 3 ng/mL [7]: 56%
% inhibition of TSH stimulation, Exp 1: 5B3 10 µg/mL [8]: 24%
% inhibition of TSH stimulation, Exp 1: 5B3 100 µg/mL [8]: 17%
% inhibition of TSH stimulation, Exp 2: 5B3 10 µg/mL [8]: 9%
% inhibition of TSH stimulation, Exp 2: 5B3 100 µg/mL [8]: 9%
Cyclic AMP, Mutated/wild type (%), Exp 1: 5B3 10 µg/mL + TSH 3 ng/mL [8]: 93%
Cyclic AMP, Mutated/wild type (%), Exp 1: 5B3 100 µg/mL + TSH 3 ng/mL [8]: 91%
Cyclic AMP, Mutated/wild type (%), Exp 2: 5B3 10 µg/mL + TSH 3 ng/mL [8]: 104%
Cyclic AMP, Mutated/wild type (%), Exp 2: 5B3 100 µg/mL + TSH 3 ng/mL [8]: 111%
% inhibition of TSH stimulation; 5B3 10 µg/mL; Experiment 1 [9]: 0%
% inhibition of TSH stimulation; 5B3 10 µg/mL; Experiment 2 [9]: 4%
% inhibition of TSH stimulation; 5B3 100 µg/mL; Experiment 1 [9]: 0%
% inhibition of TSH stimulation; 5B3 100 µg/mL; Experiment 2 [9]: 1%
Cyclic AMP produced; 5B3 10 µg/mL + TSH 3 ng/mL; Experiment 1 [9]: 81.6 pmol/mL
Cyclic AMP produced; 5B3 10 µg/mL + TSH 3 ng/mL; Experiment 2 [9]: 92.9 pmol/mL
Cyclic AMP produced; 5B3 100 µg/mL + TSH 3 ng/mL; Experiment 1 [9]: 81.6 pmol/mL
Cyclic AMP produced; 5B3 100 µg/mL + TSH 3 ng/mL; Experiment 2 [9]: 95.8 pmol/mL
Mutated/wild type (%) of cyclic AMP produced; 5B3 10 µg/mL + TSH 3 ng/mL; Experiment 1 [9]: 99%
Mutated/wild type (%) of cyclic AMP produced; 5B3 10 µg/mL + TSH 3 ng/mL; Experiment 2 [9]: 88%
Mutated/wild type (%) of cyclic AMP produced; 5B3 100 µg/mL + TSH 3 ng/mL; Experiment 1 [9]: 101%
Mutated/wild type (%) of cyclic AMP produced; 5B3 100 µg/mL + TSH 3 ng/mL; Experiment 2 [9]: 106%
% inhibition of TSH stimulation; 5B3 10 µg/mL [10]: 7%
% inhibition of TSH stimulation; 5B3 100 µg/mL [10]: 6%
Cyclic AMP produced; 5B3 10 µg/mL + TSH 3 ng/mL [10]: 59.1 pmol/mL
Cyclic AMP produced; 5B3 100 µg/mL + TSH 3 ng/mL [10]: 60 pmol/mL
Mutated/wild type (%) of cyclic AMP produced; 5B3 10 µg/mL + TSH 3 ng/mL [10]: 71%
Mutated/wild type (%) of cyclic AMP produced; 5B3 100 µg/mL + TSH 3 ng/mL [10]: 68%
% Inhibition of K1-18 IgG stimulation; 10 ng/mL K1-18 IgG + 100 µg/mL 5B3 IgG [11]: 0%
% Inhibition of K1-18 stimulation; 10 ng/mL K1-18 + 100 µg/mL 5B3 IgG [11]: 0%
% Inhibition of K1-18 stimulation; 10 ng/mL KM 8 [K1-18] + 10 µg/mL 5B3 IgG [11]: 3.5%
% inhibition of TSH stimulation, Exp 1: 5B3 10 µg/mL [12]: 0%
% inhibition of TSH stimulation, Exp 1: 5B3 100 µg/mL [12]: 0%
% inhibition of TSH stimulation, Exp 2: 5B3 10 µg/mL [12]: 0%
% inhibition of TSH stimulation, Exp 2: 5B3 100 µg/mL [12]: 0%
% inhibition of TSH stimulation: 5B3 10 µg/mL [12]: 0%
% inhibition of TSH stimulation: 5B3 100 µg/mL [12]: 0%
% inhibition of TSH stimulation; 5B3 10 µg/mL [12]: 0%
% inhibition of TSH stimulation; 5B3 100 µg/mL [12]: 0%
Cyclic AMP produced; 5B3 10 µg/mL + TSH 3 ng/mL [12]: 75.6 pmol/mL
Cyclic AMP produced; 5B3 100 µg/mL + TSH 3 ng/mL [12]: 68.3 pmol/mL
Mean absorbance at 405 nm (absorbance at 405 nm) [13]: 0.012
Inhibition of binding (%) [3]: -5%
Molecule: 5B3 IgG (antibody)

Mean absorbance at 405 nm (absorbance at 405 nm) [1]: 0.262
Mean absorbance at 405 nm (absorbance at 405 nm) [13]: 0.833
Mean absorbance at 405 nm (absorbance at 405 nm) [14]: 0.075
Molecule: M22 IgG (antibody)

% Inhibition of K1-18 IgG stimulation; 10 ng/mL K1-18 IgG + 0.001 µg/mL 5C9 IgG [11]: 19%
% Inhibition of K1-18 IgG stimulation; 10 ng/mL K1-18 IgG + 0.01 µg/mL 5C9 IgG [11]: 0%
% Inhibition of K1-18 IgG stimulation; 10 ng/mL K1-18 IgG + 0.1 µg/mL 5C9 IgG [11]: 91%
% Inhibition of K1-18 IgG stimulation; 10 ng/mL K1-18 IgG + 0.5 µg/mL 5C9 IgG [11]: 99%
% Inhibition of K1-18 IgG stimulation; 10 ng/mL K1-18 IgG + 1 µg/mL 5C9 IgG [11]: 98%
% Inhibition of K1-18 IgG stimulation; 10 ng/mL K1-18 IgG + 5 µg/mL 5C9 IgG [11]: 97%
% Inhibition of K1-18 IgG stimulation; 10 ng/mL K1-18 IgG + 10 µg/mL 5C9 IgG [11]: 97%
% Inhibition of K1-18 IgG stimulation; 10 ng/mL K1-18 IgG + 50 µg/mL 5C9 IgG [11]: 100%
% Inhibition of K1-18 IgG stimulation; 10 ng/mL K1-18 IgG + 100 µg/mL 5C9 IgG [11]: 100%
% Inhibition of K1-18 stimulation; 10 ng/mL K1-18 + 0.001 µg/mL 5C9 IgG [11]: 0%
% Inhibition of K1-18 stimulation; 10 ng/mL K1-18 + 0.01 µg/mL 5C9 IgG [11]: 25%
% Inhibition of K1-18 stimulation; 10 ng/mL K1-18 + 0.1 µg/mL 5C9 IgG [11]: 99%
% Inhibition of K1-18 stimulation; 10 ng/mL K1-18 + 1 µg/mL 5C9 IgG [11]: 99.4%
% Inhibition of K1-18 stimulation; 10 ng/mL K1-18 + 10 µg/mL 5C9 IgG [11]: 99.6%
% Inhibition of K1-18 stimulation; 10 ng/mL K1-18 + 100 µg/mL 5C9 IgG [11]: 98.7%
Mean absorbance at 405 nm (absorbance at 405 nm) [13]: 0.058
Inhibition of binding (%) [2]: 40.9%
Mean absorbance at 405 nm (absorbance at 405 nm) [14]: -0.009
Inhibition of binding (%) [4]: 10.9%
B1: 5C9 IgG (antibody, from another filing, V domains shown)
VH: EVQLVESGGGLIQPGGSLRLSCAASGFTVSSNYMSWVRQAPGKGLEWVSVTYSGGSTSYADSVKGRFTISRDNSKNTLYLQMNSLRAEDTAVYYCARGGRYCSSISCYARSGCDYWGQGTLVTVSS
VL: AIQMTQSPSSLSASVGDRVTITCRASQSISNYLNWYQQKPGKAPKLLIYAASSLQSGVPSRFSGSGSGTDFTLTISSLQPEDFATYYCQQSYSSPSTTFGQGTKLEIK
